{
  "source": "paper PMC6872149",
  "about": "“Protein:Protein interactions in the cytoplasmic membrane apparently influencing sugar transport and phosphorylation activities of the e. coli phosphotransferase system” (PLoS ONE, 2019)",
  "binders": {"B1": {"name": "FruB (fructose PTS IIA-FPr) fused to the T18 domain (pUT18-fruB) (natural protein, E. coli, UniProt P69811 1-376, looked up)", "chain": "MFQLSVQDIHPGEKAGDKEEAIRQVAAALVQAGNVAEGYVNGMLAREQQTSTFLGNGIAIPHGTTDTRDQVLKTGVQVFQFPEGVTWGDGQVAYVAIGIAASSDEHLGLLRQLTHVLSDDSVAEQLKSATTAEELRALLMGEKQSEQLKLDNEMLTLDIVASDLLTLQALNAARLKEAGAVDATFVTKAINEQPLNLGQGIWLSDSAEGNLRSAIAVSRAANAFDVDGETAAMLVSVAMNDDQPIAVLKRLADLLLDNKADRLLKADAATLLALLTSDDAPTDDVLSAEFVVRNEHGLHARPGTMLVNTIKQFNSDITVTNLDGTGKPANGRSLMKVVALGVKKGHRLRFTAQGADAEQALKAIGDAIAAGLGEGA"}},
  "biological_target": "MtlA (mannitol PTS Enzyme IIC-IIB-IIA) fused to the T25 domain (pKNT25-mtlA) (E. coli, UniProt P00550 1-637)",
  "sequence (P00550 whole entry, the tested form may be a part)": "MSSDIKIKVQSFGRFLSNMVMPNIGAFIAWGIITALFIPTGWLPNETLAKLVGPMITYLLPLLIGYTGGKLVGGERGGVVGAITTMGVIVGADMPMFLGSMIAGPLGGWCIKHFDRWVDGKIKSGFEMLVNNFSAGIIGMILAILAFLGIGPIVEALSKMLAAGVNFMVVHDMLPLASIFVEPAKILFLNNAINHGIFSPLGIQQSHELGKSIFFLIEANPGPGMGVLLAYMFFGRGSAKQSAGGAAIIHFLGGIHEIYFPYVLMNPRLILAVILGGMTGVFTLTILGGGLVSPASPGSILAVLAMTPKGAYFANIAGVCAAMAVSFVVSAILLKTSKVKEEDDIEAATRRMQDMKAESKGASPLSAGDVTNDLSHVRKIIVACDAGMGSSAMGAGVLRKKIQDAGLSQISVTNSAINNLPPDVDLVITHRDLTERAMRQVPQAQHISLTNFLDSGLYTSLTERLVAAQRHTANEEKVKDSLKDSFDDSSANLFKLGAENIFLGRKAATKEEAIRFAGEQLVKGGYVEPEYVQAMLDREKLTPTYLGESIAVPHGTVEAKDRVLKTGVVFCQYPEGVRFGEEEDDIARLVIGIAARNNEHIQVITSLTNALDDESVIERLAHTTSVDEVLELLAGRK",
  "test": "cell-based or functional assay",
  "data": [
    {"binder": "B1", "values": [
      {"measurement": "PEP-dependent [14C]mannitol phosphorylation in vitro, activity ratio (Enzyme II plus FruB / Enzyme II alone); purified His-FruB 0.23 μM added to crude extract Cr.Ext-ΔfruBKA-pMAL (no FruA)", "value": 1.2, "unit": "ratio"},
      {"measurement": "PEP-dependent [14C]mannitol phosphorylation in vitro, activity ratio (Enzyme II plus FruB / Enzyme II alone); purified His-FruB 0.23 μM added to membrane pellets MP-WT-pMAL (no fruA overexpression)", "value": 1.5, "unit": "ratio"},
      {"measurement": "PEP-dependent [14C]mannitol phosphorylation in vitro, activity ratio (Enzyme II plus FruB / Enzyme II alone); purified His-FruB 0.23 μM added to membrane pellets MP-WT-pMAL-fruA (fruA overexpressed)", "value": 8.6, "unit": "ratio"},
      {"measurement": "PEP-dependent [14C]mannitol phosphorylation in vitro, activity ratio (Enzyme II plus FruB / Enzyme II alone); purified His-FruB 0.23 μM added to membrane pellets MP-ΔfruBKA-pMAL (no FruA)", "value": 1.2, "unit": "ratio"}
    ]}
  ]
}
